Assay results: patent US6710030 (dated 2004)
“And” between values parts separate entries of the source, which are not always exact repeats. Identical values can stand only once.

Assays:
[1] = molecular target: T1, human platelet membrane glycoprotein (GP)IIb/IIIa (fibrinogen receptor, integrin αIIbβ3) on human platelets (human, UniProt P08514 32-1039; P05106 27-788); experiment: Scatchard analysis of CN binding to unactivated human platelets
T1 construct: whole, on cells

[2] = molecular target: T1, human platelet membrane glycoprotein …
[3] = molecular target: canine platelet (GP)IIb/IIIa on canine platelets (canine, UniProt Q9TUN8 32-1036; A0A8I3PMU9 158-919)

B1: contortrostatin (CN), homodimeric disintegrin purified from Agkistrodon contortrix contortrix (south (ligand)
chain: DAPANPCCDAATCKLTTGSQCADGLCCDQCKFMKEGTVCRRARGDDLDDYCNGISAGCPRNPFHA
notes: also called CTTX
[1]
  Kd: 37 nM
[2]
  IC50: 25 nM and 0.4 µg/mL
[3]
  IC50: 0.24 µg/mL
